Experimental data as given in the supplement of paper PMC9112550, “Optimization of the antimicrobial peptide Bac7 by deep mutational scanning” (BMC Biology, 2022).

Each sequence was assayed on Escherichia coli TOP10 (assay: shrunken log2 fold change of peptide-encoding DNA abundance (4.5 h post-induction vs induction); higher = less antimicrobial activity (less host growth inhibition)). Conditions: time post-induction: 4.5 h; library: site-saturation at positions 5, 18, 19, 20.
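Further: peptides expressed intracellularly from a pBAD plasmid library in pooled LB shake-flask culture, induced with 0.3% L-arabinose, DNA abundance read by NGS, three biological replicates, DESeq2 with apeglm shrinkage.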

Sequence	shrunken log2 fold change
RRIRRRPPRLPRPRPRPAGAPRP	0.497
RRIRRRPPRLPRPRPRPAGIPRP	0.352
RRIRRRPPRLPRPRPRPAGYPRP	-0.269
RRIRRRPPRLPRPRPRPAHDPRP	0.873
RRIRRRPPRLPRPRPRPAHFPRP	0.0399
RRIRRRPPRLPRPRPRPAHSPRP	0.384
RRIRRRPPRLPRPRPRPALNPRP	0.248
RRIRRRPPRLPRPRPRPALTPRP	0.258
RRIRRRPPRLPRPRPRPAMSPRP	0.157
RRIRRRPPRLPRPRPRPAPYPRP	0.408
RRIRRRPPRLPRPRPRPAQPPRP	0.958
RRIRRRPPRLPRPRPRPARPPRP	0.703
RRIRRRPPRLPRPRPRPAVDPRP	0.204
RRIRRRPPRLPRPRPRPAVLPRP	-0.00596
RRIRRRPPRLPRPRPRPAYDPRP	0.0406
RRIRRRPPRLPRPRPRPAYGPRP	0.286
RRIRRRPPRLPRPRPRPAYRPRP	0.108
RRIRRRPPRLPRPRPRPCATPRP	0.586
RRIRRRPPRLPRPRPRPCEVPRP	-0.0207
RRIRRRPPRLPRPRPRPCFCPRP	0.104
RRIRRRPPRLPRPRPRPCFKPRP	-0.236
RRIRRRPPRLPRPRPRPCGWPRP	0.776
RRIRRRPPRLPRPRPRPCIMPRP	-0.191
RRIRRRPPRLPRPRPRPCKNPRP	0.0778
RRIRRRPPRLPRPRPRPCQQPRP	-0.0197

Sequence	shrunken log2 fold change
RRIRRRPPRLPRPRPRPCQTPRP	-0.041
RRIRRRPPRLPRPRPRPCQWPRP	0.107
RRIRRRPPRLPRPRPRPCRMPRP	0.0963
RRIRRRPPRLPRPRPRPCSAPRP	0.34
RRIRRRPPRLPRPRPRPCTLPRP	-0.49
RRIRRRPPRLPRPRPRPCTVPRP	-0.0302
RRIRRRPPRLPRPRPRPCVAPRP	0.261
RRIRRRPPRLPRPRPRPCVCPRP	0.082
RRIRRRPPRLPRPRPRPCVEPRP	-0.0155
RRIRRRPPRLPRPRPRPCVHPRP	-0.0733
RRIRRRPPRLPRPRPRPCVPPRP	-0.149
RRIRRRPPRLPRPRPRPCVQPRP	0.171
RRIRRRPPRLPRPRPRPCWIPRP	0.063
RRIRRRPPRLPRPRPRPCYPPRP	-0.0837
RRIRRRPPRLPRPRPRPCYTPRP	-0.112
RRIRRRPPRLPRPRPRPDALPRP	0.23
RRIRRRPPRLPRPRPRPDAQPRP	0.471
RRIRRRPPRLPRPRPRPDCNPRP	0.311
RRIRRRPPRLPRPRPRPDDVPRP	0.0443
RRIRRRPPRLPRPRPRPDEVPRP	0.61
RRIRRRPPRLPRPRPRPDFFPRP	-0.00974
RRIRRRPPRLPRPRPRPDFRPRP	0.118
RRIRRRPPRLPRPRPRPDFYPRP	0.159
RRIRRRPPRLPRPRPRPDGHPRP	-0.0521
RRIRRRPPRLPRPRPRPDGVPRP	0.268

Sequence	shrunken log2 fold change
RRIRRRPPRLPRPRPRPDHFPRP	0.0408
RRIRRRPPRLPRPRPRPDHPPRP	0.0778
RRIRRRPPRLPRPRPRPDLHPRP	0.308
RRIRRRPPRLPRPRPRPDNNPRP	-0.187
RRIRRRPPRLPRPRPRPDNWPRP	0.000556
RRIRRRPPRLPRPRPRPDNYPRP	-0.323
RRIRRRPPRLPRPRPRPDPCPRP	-0.00607
RRIRRRPPRLPRPRPRPDPDPRP	-0.0342
RRIRRRPPRLPRPRPRPDPNPRP	0.0237
RRIRRRPPRLPRPRPRPDRHPRP	-0.0411
RRIRRRPPRLPRPRPRPDRRPRP	0.108
RRIRRRPPRLPRPRPRPDSTPRP	0.187
RRIRRRPPRLPRPRPRPDVDPRP	0.505
RRIRRRPPRLPRPRPRPDVTPRP	-0.0312
RRIRRRPPRLPRPRPRPDWYPRP	0.0693
RRIRRRPPRLPRPRPRPDYRPRP	0.0309
RRIRRRPPRLPRPRPRPDYYPRP	-0.0675
RRIRRRPPRLPRPRPRPEAWPRP	0.14
RRIRRRPPRLPRPRPRPECIPRP	0.282
RRIRRRPPRLPRPRPRPECNPRP	0.791
RRIRRRPPRLPRPRPRPECSPRP	-0.121
RRIRRRPPRLPRPRPRPEDEPRP	-0.0165
RRIRRRPPRLPRPRPRPEELPRP	0.338
RRIRRRPPRLPRPRPRPEIGPRP	0.244
RRIRRRPPRLPRPRPRPEIRPRP	0.0292
